The target in the experiment is NTF2-like domain of human G3BP1 (residues 1-139) (human, UniProt Q13283 1-139). As to the kind of experiment: ITC.
Chain of NTF2-like domain of human G3BP1 (residues 1-139) (Q13283 1-139): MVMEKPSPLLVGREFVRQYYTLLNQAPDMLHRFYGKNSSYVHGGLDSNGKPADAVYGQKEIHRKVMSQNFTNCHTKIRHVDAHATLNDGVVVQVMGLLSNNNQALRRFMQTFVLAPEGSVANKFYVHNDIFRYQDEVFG

MSDNGPQNQRNAPRITFGGPSDSTG [SARS-CoV-2 N_(1–25) peptide (residues 1-25 of the N protein)] gave a dH of -73.6 kJ/mol.

These data come from article PMC8882607 (Journal of Molecular Biology, 2022).
